The values below come from article PMC6802964.

A word on the stoichiometry N: it is the number of molecules, sites or subunits per partner or assembly. As a reminder, the Kd is the free concentration of one partner at which half of the binding sites on the other are occupied at equilibrium, for simple one-to-one binding.

Holding throughout (test): other fluorescence titration; change of the CyPet-YPet FRET signal of the IQ-FRET protein (1 µM by the methods, 0.5 µM by the legend) with varying concentrations of Cam1 or Cam2; 140 mM KCl, 20 mM MOPS pH 7.0, with or without 2 mM MgCl2, 2 mM EGTA (absence of calcium)
Assay [1] concerns the target T1, CyPet–Myo1^IQ12–YPet FRET reporter protein (S. pombe).
T1 sequence (Q9Y7Z8 whole entry, looked up): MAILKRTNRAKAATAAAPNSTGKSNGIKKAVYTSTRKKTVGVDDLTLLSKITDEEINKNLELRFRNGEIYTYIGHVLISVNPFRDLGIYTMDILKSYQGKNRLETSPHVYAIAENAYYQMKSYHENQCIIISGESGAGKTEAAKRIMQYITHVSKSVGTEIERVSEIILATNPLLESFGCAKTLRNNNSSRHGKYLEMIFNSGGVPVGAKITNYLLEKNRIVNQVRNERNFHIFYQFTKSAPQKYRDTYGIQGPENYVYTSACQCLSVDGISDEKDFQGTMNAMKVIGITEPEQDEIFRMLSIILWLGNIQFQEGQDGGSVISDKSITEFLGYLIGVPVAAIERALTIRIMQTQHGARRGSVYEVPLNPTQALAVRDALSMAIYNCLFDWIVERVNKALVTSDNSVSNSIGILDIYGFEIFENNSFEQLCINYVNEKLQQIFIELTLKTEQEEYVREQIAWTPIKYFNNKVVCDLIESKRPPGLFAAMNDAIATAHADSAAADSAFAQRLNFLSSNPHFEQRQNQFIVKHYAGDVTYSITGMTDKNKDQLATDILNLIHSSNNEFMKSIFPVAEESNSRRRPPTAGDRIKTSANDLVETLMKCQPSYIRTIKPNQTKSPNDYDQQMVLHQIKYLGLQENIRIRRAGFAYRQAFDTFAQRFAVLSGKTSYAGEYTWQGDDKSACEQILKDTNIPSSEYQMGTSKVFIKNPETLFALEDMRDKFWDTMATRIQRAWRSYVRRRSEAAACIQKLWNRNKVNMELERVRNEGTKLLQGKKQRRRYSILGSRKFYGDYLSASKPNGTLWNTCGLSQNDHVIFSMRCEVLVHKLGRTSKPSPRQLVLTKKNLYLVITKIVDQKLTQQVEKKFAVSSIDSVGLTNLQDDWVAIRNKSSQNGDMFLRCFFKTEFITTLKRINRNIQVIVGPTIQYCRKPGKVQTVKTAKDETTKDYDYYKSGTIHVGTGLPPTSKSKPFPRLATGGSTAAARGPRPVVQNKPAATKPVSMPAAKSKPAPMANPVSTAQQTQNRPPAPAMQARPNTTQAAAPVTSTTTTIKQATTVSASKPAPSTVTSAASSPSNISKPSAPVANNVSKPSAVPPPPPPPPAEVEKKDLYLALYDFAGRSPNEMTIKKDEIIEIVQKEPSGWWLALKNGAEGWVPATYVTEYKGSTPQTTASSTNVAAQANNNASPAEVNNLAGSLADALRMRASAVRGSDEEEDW

Assay [2] deals with T2, CyPet–Myo1^IQ1–YPet FRET reporter protein (S. pombe).
T2 sequence (Q9Y7Z8 whole entry, looked up): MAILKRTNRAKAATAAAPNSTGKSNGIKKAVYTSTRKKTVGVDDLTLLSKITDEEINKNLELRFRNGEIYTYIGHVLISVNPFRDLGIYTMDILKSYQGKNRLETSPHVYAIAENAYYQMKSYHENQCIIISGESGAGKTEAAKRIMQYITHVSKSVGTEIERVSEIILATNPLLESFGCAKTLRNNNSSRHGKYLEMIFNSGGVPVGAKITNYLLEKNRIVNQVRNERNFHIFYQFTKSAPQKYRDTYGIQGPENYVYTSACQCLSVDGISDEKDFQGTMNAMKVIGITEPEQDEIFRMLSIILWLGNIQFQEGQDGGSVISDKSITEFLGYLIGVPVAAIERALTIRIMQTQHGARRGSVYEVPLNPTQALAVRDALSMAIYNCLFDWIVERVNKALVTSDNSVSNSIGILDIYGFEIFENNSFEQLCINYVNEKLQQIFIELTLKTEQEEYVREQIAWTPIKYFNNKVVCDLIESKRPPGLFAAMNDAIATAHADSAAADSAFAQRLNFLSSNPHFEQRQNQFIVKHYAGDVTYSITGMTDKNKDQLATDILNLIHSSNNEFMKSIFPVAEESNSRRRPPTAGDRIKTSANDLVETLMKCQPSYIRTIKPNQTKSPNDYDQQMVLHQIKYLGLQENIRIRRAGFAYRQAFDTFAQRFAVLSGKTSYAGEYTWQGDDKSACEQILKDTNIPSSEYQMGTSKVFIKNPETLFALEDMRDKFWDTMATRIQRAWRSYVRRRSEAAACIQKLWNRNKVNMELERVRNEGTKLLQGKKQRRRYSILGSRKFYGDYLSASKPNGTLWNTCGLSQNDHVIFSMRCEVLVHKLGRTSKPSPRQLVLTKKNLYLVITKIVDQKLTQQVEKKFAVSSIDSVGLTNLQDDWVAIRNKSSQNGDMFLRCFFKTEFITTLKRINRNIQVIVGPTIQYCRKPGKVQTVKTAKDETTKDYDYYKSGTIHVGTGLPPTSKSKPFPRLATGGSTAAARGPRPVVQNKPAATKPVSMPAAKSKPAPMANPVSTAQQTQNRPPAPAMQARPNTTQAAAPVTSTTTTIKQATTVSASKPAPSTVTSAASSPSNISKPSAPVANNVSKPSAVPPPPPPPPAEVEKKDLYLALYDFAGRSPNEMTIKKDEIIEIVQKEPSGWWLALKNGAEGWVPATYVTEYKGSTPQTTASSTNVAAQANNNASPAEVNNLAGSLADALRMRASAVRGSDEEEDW

Assay [3] has as its target CyPet–Myo1^IQ12S742D–YPet FRET reporter protein (S742D phosphomimetic) (S. pombe).

B1: Cam2 (calcium-insensitive calmodulin-like protein) (natural protein)
chain: MPASKEQTDEMKEAFVLYDIDKDGLIPTSHVGSVLRSLGINVTDAELAKLSNELGDAIDEKKFMSFVSNKLRETESEEEYIKAFRVFDKDNSGYIETAKFADYMKTLGEKLSDNEVQLMVQEADPTNSGSFDYYDFVQRIMAK
As for B1, in assay [1], the KD of the binding event that gives 70% of the signal change came out at 1.1 µM and the stoichiometry N worked out at 2. For the same molecule, the Kd in assay [2] was 0.4 µM. For the same molecule, in assay [3], the drop in interaction against wild type Myo1^IQ12–FRET was determined as 50%.
